In patent WO2005035751A1 (dated 2005):

B1: MI3-26 (scFv)
scFv: MASMTGGQQMGQVTLKECGPGILQPSQTLSLTCSFSGFSLSTSGMSVGWIRQPSGKGLKWLAHIWWNDDKYYNPAPKSRLTISKDTSNNQVFLKIASVVTADTATYYCARIARISYYFDYWGQGTTLTVSSAKTSRPSGGGGSGGGGTGGVGSRGGSSIEGRDIQLTQPPSFLSASLGDRVSLTCRVSQDIGSSLNWLQQDPDGTIKRLIYAISSIDSGVPKRFSGNRSESDYSLTISSLESEDFVDYYCLQYASTPPTFGGGTKLEIKRDYKDDDDKRTSRVRLHHHHHHHKK
notes: Single-chain antibody translated in wheat germ extract
B2: MI3-41 (scFv)
scFv: MASMTGGQQMGQVTLKESGPGILQPSQTLSLTCSFSGFSLSTSGMGVGWIRQPSGKGLEWLAHIWRDDVKRYNPALKSRLTISKDTSSSQVFLKIASMDTADTATYYCARIYYYGPYFDVWGAGTTVTVSLAKTSRPSGGGGSGRGGSGGAGSGGGGSIEGRDIQLTQPPSFLSASLGDRVSLTCRVSQDIGSSLNWLQQDPDGTIKRLIYAISSIDSGVPKRFSGNRSESDYSLTISSLESEDFVDYYCLQYASTPPTFGGGTKLEIKRDYKDDDDKRTSRVRLHHHHHHHKK
notes: as for B1
B3: MI3-34 (scFv, V domains shown)
VH: QVTLKESGPGILQPSQTLSLTCSFSGFSLSTSGMGVGWIRQPSGKGLEWLAHIWQDNVKRYNPALKSRLSISKDTSSSQVFLKIASMDTADTATYYCARIYYYGPYFDVWGAWTTVTVSL
notes: as for B1
B4: MI3-15 (scFv)
scFv: MASMTGGQQMGQVTLKESGPGILQPSQTLSLTCSFSGFSLSTSGMGVGWIRQPSGKGLEWLAHIWRDDVKRYNPALKSRLTISKDTSSSQVFLKIASMDTADTATYYCARIYYYGPYFDVWGAGTTVTVSLAKTSRPSGGGGSGRGGSGGAGSGGGGSIEGRDIQLTQPPSFLSASLGDRVSLTCRVSQDIGSSLNWLQQDPDGTIKRLIYAISSIDSGVPKRFSGNRSESDYFLTISSLESEDFVDYYCLQYASTPPTFGGGTKLEIKRDYKDDDDKRTSRVRLHHHHHHHKK
notes: as for B1
B5: MI3-42 (scFv)
scFv: MASMTGGQQKGQVTLKESGPGILQPSQTLSLTCSFSGFSLSTSGMGVGWIRQPSGKGLEWLAHIWRDDVKRYNPALKSRLTISKDTSSSQVFLKIASMDTADTATYYCARIYYYGPYFDVWGAGTTVTVSLAKTSRPSGGGGSGGGGSGGAGSGGGGSIEGRDIQLTQPPSFLSASLGDRVSLTCRVSQDIGSSLNWLQQDPDGTVKRLIYAISSIDSGVPKRFSGNRSESDYSLTISSLESEDFVDYYCLQYASTPPTFGGGTKLEIKRDYKDDDDKRTSRVRLHHHHHHHKK
notes: as for B1
B6: MI3-28 (scFv)
scFv: MASMTGGQQMGQVTLKESGPGILQPSQTLSLTCSFSGFSLSTSGMGVGWIRQPSGKGLEWLAHIWRDDVKRYNPALKSRLTISKDTSSSQVFLKIASMDTADTATYYCPRIYYYGPYFDVWGAGTTVTVSLAKTSRPSGGGGSGGGGSGGAGSGGGGSIEGRDIQLTQPPSFLSASLGDRVSLTCRVSQDIGSSLNWLQQDPDGTIKRLIYAISSIDSGVPKRFSGNRSESDYSLTISSLESEDFVDYYCLQYASTPPTFGGGTKLEIKRDYKDDDDKRTSRVRLHHHHHHHKK
notes: as for B1
B7: MI3-5 (scFv)
scFv: MASMTGGQQMGQVTLKETGPGILQPSQTLSLTCSFSGFSLSTSGMGVGWIRQPSGKGLEWLAHIWRDDVKRYNPALKSRLTISKDTSSSQVFLKIASMDTADTATYYCTRIYYYGPYFDVWGAGTTVTVSLAKTSRPSGGGGSGGGGSGGAGSGGGGSIEGRDIQLTQPPSFFSASLGDRASLTRRVSQDIGSSLNWLQQDPDGTIKRLIYAISSIDSGVPKRFSGNRSESDYSLTISSLESEDFVDYYCLQYASTPSTFGGGTKLEIKRDYKDDDDKRTSRVRLHHHHHHHKK
notes: as for B1

Biological target: T1, angiotensin II-biotin (UniProt P01019 25-32, biotin attached (angiotensin II-biotin; chemical structure only in Figure 3))
T1 construct: Captured through its biotin on streptavidin (Biacore chip, ELISA plate) or on NeutrAvidin resin (selection); P01019 is the human angiotensinogen precursor, and angiotensin II is only a fragment of it; also called アンジォテンシン II-ピオチン
Assay: SPR (Biacore 3000), angiotensin II-biotin on streptavidin chip

Binding result, binds:
B1, B2, B3, B4, B5, B6, B7
